Experimental findings from the nanobody polyreactivity screen of Harvey et al. (2022) are described below.

The series in a line: yeast display, Sf9 membrane polyspecificity reagent, FACS + sequencing; frameworks hold sequencing errors. The gist of the method: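 Sorting gates, low and high (top ~1%), were placed on anti-HA fluorescence to track expression and on streptavidin fluorescence to track reagent binding. A clone's polyreactivity label is taken from the gate it came out of. The reagent was 10% biotinylated, detergent-solubilized Sf9 membrane, applied for 1 hour at 4 °C to galactose-induced yeast display cells.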
With “QVQLVESGGGLVPAGGSLRLSCAASGFTFGVYAMGWYRQAPGKERELVAAITWSGGRTYYADSVKGRFTISRDNAKNSVYLQMNSLKPEDTAVYYCAAGFYRYNAVRYDYWGQGTQVTVSS”, the “polyreactivity (PSR sort gate)” value is on record as “high polyreactivity”.

“QVQLVESGGGLVPAGGSLRLSCAASGFTFSYYAMGWYRQAPGKERELVAAISWSGGRTYYADSVKGRFTISRDNAKNTVYLEMNRLKPEDTAVYYCAVVYYGSIFVLEYDYWGQGTQVTVSS”: the “polyreactivity (PSR sort gate)” value is “high polyreactivity”.

Regarding “QVQLVESGGGLVPAGGSLRLSCAASGLTFTTYAMGWYRQAPGKERELVAANSNSGATTYYADSVKGRFTISRDNAKNTVYLQMNSLKREETAVYYCAATSYTATWRYYYWGQGTQVTVSS”, the “polyreactivity (PSR sort gate)” value was “high polyreactivity”.

Take “QVQLVESGGGLVPAGGSLRLSCAASGRTLYGYAMGWYRQAPGKERELVAAISGGGSTYYADSVKGRFTISRDNAKNTVYLQMNSLKPEDTAVYYCARRANFYVRRYYWGQGSQVTVSS”: the “polyreactivity (PSR sort gate)” value is on record as “high polyreactivity”.

Turning to “QVQLVESGGGLVPAGGSLRLSCAASGSTFTQNARGWYRQAPGKERELVAAISWSGARTYYADSVKGRFTISPDNANNTVYLQMNSLKPEDTAVYYCNNYARKRGTTNDYWGQGTQVTVSS”, the “polyreactivity (PSR sort gate)” value is recorded as “high polyreactivity”.

On to “QVQLVESGGGLVPAGGSLRLSCASSGIIFWVNAMGWYRQAPGNERELVAAIRSDGSTKYADSVKRRFTISRDKAKNTVYVQMNSLKPVDTALYYCAKRDYSYPWFRDYYYWGQGTKVTVSS”, for which the “polyreactivity (PSR sort gate)” value is “low polyreactivity”.

On to “QVQLVESGGGLVPAGGSRRLSCAASGSIFTSYAMGWYRQAPGKERELVAAISSSGGSTYYADSVSGRFTISRDNAKQTVYFQMNSLKPEDTAVYYCAARYKGVYAPHYYWGQGTQVTVSS”, for which the “polyreactivity (PSR sort gate)” value is “high polyreactivity”.

For “QVQLVESGGGLVPARGSLRLSCAASGSTFSDNAMGWYRQAPGKERELVAAINWSVGSTYYADSVKGRFTISRDNAKNTVYLQMNRRKPEDTAVYYCAGGYSLYESLVIFDYWGQGTQVTVSS”, the “polyreactivity (PSR sort gate)” value is listed as “low polyreactivity”.

As to “QVQLVESGGGLVQAAGSLRLSCAASGFIFQAYAMGWYRQAPGKERELVAAISSSGGSTYYADSVKGRFTISRDNAKYTVYLKRNILKPEDTAVYYCAARSRRVSLLSESYGYWGQGTQVTVSS”, the “polyreactivity (PSR sort gate)” value was “high polyreactivity”.

Consider “QVQLVESGGGLVQAAGSLRLSCAASGFTLTGNAMGWYRQATGKERELVAAISRNGGSTFYADSVKGRFTISRDNAKNTVFLQMNSLKPEDTAVYYCNASRYRHSAYKYDSWGQGTQVTVSS”, for which the “polyreactivity (PSR sort gate)” value is “high polyreactivity”.

With “QVQLVESGGGLVQAAGSLRLSCAASGITFRWYAMGWYRQAPGKERELVAAITYRGGSTHYEDSVKGRFTISRDNAKTSVYLQMNSLKPEDTAVYYCAVRRWPRYRWSDYWGKGTQVTVSS”, the “polyreactivity (PSR sort gate)” value was “low polyreactivity”.

“QVQLVESGGGLVQAAGSLRLSCAASGNIFVRYVMGWYRQAPGKERELVAAITTSGGSTRYADSVKGRFTISRDNAKNSVYLQMNSLKPEDTAVYYCAARFRYRHLTYGYWGQGTQVTVSS”: the “polyreactivity (PSR sort gate)” value is recorded as “high polyreactivity”.

Consider “QVQLVESGGGLVQAAGSLRLSCAASGRTFSGYAMGWYRQAPGKERELVAAIRWSGGSTYYADSVKGRFTISRDNAKNTVYLQMNSLKPEDTAVYYCATRDYYYRYGYWGQGTQVTVSS”, for which the “polyreactivity (PSR sort gate)” value is “high polyreactivity”.

Consider “QVQLVESGGGLVQAAGSLRLSCAASGSTFDNKVMGWYRQAPGKERELVATITWGDGSTSYADSVKGRFTISRDIAKNTVYLELNSRKREDTAVYFCAAGEYYHRIFLWYVYWGQGTKVTVSS”, for which the “polyreactivity (PSR sort gate)” value is recorded as “low polyreactivity”.

As to “QVQLVESGGGLVQAAGSLRLSCAASGYTLAGNAMGWYRQSPGIERELVAAIDWNGGSTTYADSVKGRFTISRDNAKNTVYLQMNSLKPEDSAVYYCNVDLGVNGDYWGQGWQVTVSS”, the “polyreactivity (PSR sort gate)” value was “low polyreactivity”.

Turning to “QVQLVESGGGLVQAAGSLRLSCATSGFTFVSNAMGRYRQPHGKQRELVAAITKRRSGSTYYADSVKGRFTISRDNAKNTVYLQMNSLKPEDTAVYYCDRVPDTDGEYWGQGTQVTVSS”, the “polyreactivity (PSR sort gate)” value is recorded as “high polyreactivity”.
